Measured values reported in US20110047631A1 (MEDICAL COLLEGE OF GEORGIA RESEARCH INSTITUTE, published 2011).

Biological target: T1, purified wild-type tau441 (UniProt P10636-8 1-441)
T1 construct: The 441-residue isoform, not the canonical UniProt entry length; Used at 2 uM; also called purified tau 441; purified tau
Assay: purified wild-type tau441 and purified Hsp110 incubated together, immunoprecipitation, immunoblot
Experimental: As the data in FIG. 6 indicates, Hsp110 is present in tau immunocomplexes; however, it is not clear whether the interaction is direct or indirect. In order to determine whether Hsp110 interacts with tau directly, we incubated purified wild-type tau441 and Hsp110 and subjected them to immunoprecipitation analyses.

T1 sequence (P10636 other isoform, or with tags, fused parts or gaps limits assumed): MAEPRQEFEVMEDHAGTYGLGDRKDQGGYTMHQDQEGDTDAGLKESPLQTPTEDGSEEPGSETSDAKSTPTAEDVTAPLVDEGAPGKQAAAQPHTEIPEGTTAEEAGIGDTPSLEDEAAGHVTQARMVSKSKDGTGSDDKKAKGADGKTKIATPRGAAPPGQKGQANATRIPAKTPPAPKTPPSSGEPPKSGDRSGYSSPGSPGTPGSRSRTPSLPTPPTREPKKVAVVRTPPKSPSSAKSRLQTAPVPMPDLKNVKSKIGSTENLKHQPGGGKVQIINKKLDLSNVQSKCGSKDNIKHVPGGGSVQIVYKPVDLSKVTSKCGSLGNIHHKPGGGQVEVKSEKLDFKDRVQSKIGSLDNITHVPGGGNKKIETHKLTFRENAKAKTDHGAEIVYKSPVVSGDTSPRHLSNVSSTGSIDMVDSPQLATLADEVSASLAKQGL

B1: purified full-length Hsp110 (human) (other, UniProt Q92598 2-858, looked up)
chain: SVVGLDVGSQSCYIAVARAGGIETIANEFSDRCTPSVISFGSKNRTIGVAAKNQQITHANNTVSNFKRFHGRAFNDPFIQKEKENLSYDLVPLKNGGVGIKVMYMGEEHLFSVEQITAMLLTKLKETAENSLKKPVTDCVISVPSFFTDAERRSVLDAAQIVGLNCLRLMNDMTAVALNYGIYKQDLPSLDEKPRIVVFVDMGHSAFQVSACAFNKGKLKVLGTAFDPFLGGKNFDEKLVEHFCAEFKTKYKLDAKSKIRALLRLYQECEKLKKLMSSNSTDLPLNIECFMNDKDVSGKMNRSQFEELCAELLQKIEVPLYSLLEQTHLKVEDVSAVEIVGGATRIPAVKERIAKFFGKDISTTLNADEAVARGCALQCAILSPAFKVREFSVTDAVPFPISLIWNHDSEDTEGVHEVFSRNHAAPFSKVLTFLRRGPFELEAFYSDPQGVPYPEAKIGRFVVQNVSAQKDGEKSRVKVKVRVNTHGIFTISTASMVEKVPTEENEMSSEADMECLNQRPPENPDTDKNVQQDNSEAGTQPQVQTDAQQTSQSPPSPELTSEENKIPDADKANEKKVDQPPEAKKPKIKVVNVELPIEANLVWQLGKDLLNMYIETEGKMIMQDKLEKERNDAKNAVEEYVYEFRDKLCGPYEKFICEQDHQNFLRLLTETEDWLYEEGEDQAKQAYVDKLEELMKIGTPVKVRFQEAEERPKMFEELGQRLQHYAKIAADFRNKDEKYNHIDESEMKKVEKSVNEVMEWMNNVMNAQAKKSLDQDPVVRAQEIKTKIKELNNTCEPVVTQPKPKIESPKLERTPNGPNIDKKEEDLEDKNNFGAEPPHQNGECYPNEKNSVNMDLD
notes: mature; used at 2 uM; also called purified Hsp110
Q: Does B1 bind?
A: binds
